Read-outs that look alike come from different tables or passages of the source.

The source of these data is US20100183625A1, “Treatment of Mucositis with Kallikrein Inhibitors” (Dyax Corp., priority 2009, published 2010).

The target in test [1] is T1, pKal (Homo sapiens, UniProt P03952).
T1 construct: two disulfide linked polypeptides; a heavy chain of approximately 52 kDa and a catalytic domain of approximately 34 kDa; host or cells: human plasma
As to the kind of experiment: Fab fragments (small scale) tested for inhibition against human pKal in an in vitro protease cleavage assay. The format is biochemical. Particulars: Table 9.

For another test, the target named is T2, mouse pKal (Mus musculus, UniProt P26262).
T2 construct: active plasma kallikrein (pkal) has the single polypeptide chain cleaved at a single position
As to the kind of experiment: Ki,app against mouse pKal. The format is biochemical. Particulars: Table 15. Here is the method: Fourth, antibodies were tested for their ability to inhibit pKal from other species, besides human, where the amino acid sequence of pKal has been determined in order to identify amino acids that may account for the differences in inhibition.
Antibodies that inhibit the activity of pKal either bind near the active site and preclude substrate interactions (competitive inhibitors) or that bind away from the active site and induce allosteric changes in the structure of the active site (noncompetitive inhibitors).

Test [2] concerns the target T3, human plasma kallikrein (human pKal) (Homo sapiens, UniProt P03952).
T3 construct: two disulfide linked polypeptides; a heavy chain of approximately 52 kDa and a catalytic domain of approximately 34 kDa; host or cells: human plasma
The test is described as follows: Ki,app against human pKal by steady state enzyme kinetics (in vitro protease cleavage assay, Pro-Phe-Arg-aminomethylcoumarin substrate). In kind it is biochemical. From the text:
The inhibition constant (Ki) provides a measure of inhibitor potency; it is the concentration of inhibitor required to reduce enzyme activity by half and is not dependent on enzyme or substrate concentrations. The apparent Ki (Ki,app) is obtained at different substrate concentrations by measuring the inhibitory effect of different concentrations of inhibitor (e.g., inhibitory binding protein) on the extent of the reaction (e.g., enzyme activity); fitting the change in pseudo-first order rate constant as a function of inhibitor concentration to the Morrison equation (Equation 1) yields an estimate of the apparent Ki value. The Ki is obtained from the y-intercept extracted from a linear regression analysis of a plot of Ki,app versus substrate concentration.
Where v=measured velocity; v0=velocity in the absence of inhibitor; Ki,app=apparent inhibition constant; I=total inhibitor concentration; and E=total enzyme concentration.
The sequence of human plasma kallikrein that was used in selections and subsequent screening of binding proteins is shown below (accession number NP_000883.2). The human plasma kallikrein (86 kDa) that was used was purified from human plasma and activated with factor XIIa by a commercial vendor. Factor XIIa activates prekallikrein by cleaving the polypeptide sequence at a single site (between Arg371-Ile372, cleavage site marked by “/” in the sequence below) to generate active plasma kallikrein, which then consists of two disulfide linked polypeptides; a heavy chain of approximately 52 kDa and a catalytic domain of approximately 34 kDa [Colman and Schmaier, (1997) “Contact System: A Vascular Biology Modulator With Anticoagulant, Profibrinolytic, Antiadhesive, and Proinflammatory Attributes” Blood, 90, 3819-3843]
These antibodies were produced as Fab fragments in small scale (˜20 μg) and tested for inhibition against human pKal in an in vitro protease cleavage assay using Pro-Phe-Arg-aminomethylcoumarin as the synthetic peptide substrate. […] Five antibodies were then expressed in 293T cells and purified by protein A sepharose chromatography. The antibodies were analyzed by SDS-PAGE to determine which of the inhibitory mutants are not cleaved by the host cell protease(s) (data not shown).

In test [3] the target is T1, pKal. As to the kind of experiment: Inhibition screening with 10 nM antibody (as Fab fragments). In kind it is biochemical. The source says: The 82 antibodies that were discovered based on improvements in M162-A04 due to modifications in either the CDR1/2 and CDR3 region are shown in Table 12.
The 62 antibodies that were discovered based on improvements in X63-G06 due to modifications in either the CDR1/2 and CDR3 region are shown in Table 13.

The target in test [4] is T4, biotinylated plasma kallikrein (human pKal) (Homo sapiens, UniProt P03952).
T4 construct: two disulfide linked polypeptides; a heavy chain of approximately 52 kDa and a catalytic domain of approximately 34 kDa; host or cells: human plasma
The test is described as follows: Human pKal ELISA (T/B). In kind it is binding. Particulars: ELISA signal of target (biotinylated plasma kallikrein) divided by signal of background (streptavidin); Table 6. (In general: In an ELISA, binding on a coated surface is turned into a signal by an enzyme label.)

Setting [5] is: human pKal, Table 13, antibodies based on X63-G06, read-out: human pKal Ki, app.
[6] abbreviates: Table 13, antibodies based on X63-G06.
Where [7] appears, read: Table 6, read-out: Human pKal (Ki, app nM).

T3 sequence (P03952 391-638 limits assumed): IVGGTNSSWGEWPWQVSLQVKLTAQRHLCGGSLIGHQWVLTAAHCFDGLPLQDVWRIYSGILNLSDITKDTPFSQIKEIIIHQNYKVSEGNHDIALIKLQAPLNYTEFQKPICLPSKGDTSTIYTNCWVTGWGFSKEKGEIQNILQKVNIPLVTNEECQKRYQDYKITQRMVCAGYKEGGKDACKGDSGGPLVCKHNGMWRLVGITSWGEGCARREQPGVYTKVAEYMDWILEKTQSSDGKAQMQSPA
T3 sequence (P03952 20-390 partner limits assumed): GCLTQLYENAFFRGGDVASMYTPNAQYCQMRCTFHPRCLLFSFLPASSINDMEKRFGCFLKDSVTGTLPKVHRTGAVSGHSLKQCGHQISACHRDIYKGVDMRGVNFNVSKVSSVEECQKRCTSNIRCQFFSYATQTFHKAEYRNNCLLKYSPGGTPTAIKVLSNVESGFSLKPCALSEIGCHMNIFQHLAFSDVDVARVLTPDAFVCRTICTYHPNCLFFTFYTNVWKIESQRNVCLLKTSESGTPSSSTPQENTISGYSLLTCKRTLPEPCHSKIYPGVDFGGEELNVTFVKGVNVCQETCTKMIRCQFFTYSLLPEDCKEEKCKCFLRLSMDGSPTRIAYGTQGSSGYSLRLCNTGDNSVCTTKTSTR
T1 sequence (P03952 391-638 limits assumed): as the sequence (P03952 391-638 limits assumed) above
T1 sequence (P03952 20-390 partner limits assumed): as the sequence (P03952 20-390 partner limits assumed) above
T4 sequence (P03952 391-638 limits assumed): as the sequence (P03952 391-638 limits assumed) above
T4 sequence (P03952 20-390 partner limits assumed): as the sequence (P03952 20-390 partner limits assumed) above
T2 sequence (P26262 391-638 limits assumed): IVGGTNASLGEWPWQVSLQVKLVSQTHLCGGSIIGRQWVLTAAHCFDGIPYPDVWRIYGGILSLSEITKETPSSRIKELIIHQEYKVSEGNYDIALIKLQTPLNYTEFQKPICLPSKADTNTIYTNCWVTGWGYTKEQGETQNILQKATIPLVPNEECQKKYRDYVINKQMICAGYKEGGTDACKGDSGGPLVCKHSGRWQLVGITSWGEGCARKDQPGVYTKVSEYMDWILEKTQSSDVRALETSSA
T2 sequence (P26262 20-390 partner limits assumed): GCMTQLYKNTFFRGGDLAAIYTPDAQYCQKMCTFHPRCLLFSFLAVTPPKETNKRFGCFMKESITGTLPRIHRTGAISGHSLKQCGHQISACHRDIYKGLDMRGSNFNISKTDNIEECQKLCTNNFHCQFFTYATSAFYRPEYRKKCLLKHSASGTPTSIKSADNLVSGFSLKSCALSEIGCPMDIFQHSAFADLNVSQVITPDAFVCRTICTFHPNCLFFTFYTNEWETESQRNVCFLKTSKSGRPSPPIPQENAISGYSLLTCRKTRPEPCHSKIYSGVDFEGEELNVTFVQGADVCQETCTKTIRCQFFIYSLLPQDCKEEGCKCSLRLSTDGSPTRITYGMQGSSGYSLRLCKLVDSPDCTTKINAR

B1: X66-C02: single point mutation of M142-H08 (P1); HV-CDR3 GGLLLWFVELKSNYFDY (antibody, V domains shown)
VL: QDIQMTQSPSSLSAFVGDRVTITCRASQPIDNYLNWYHQKPGKAPKLLIYAASRLQSGVPSRLSGSGFGTDFTLTISSLQPEDFGNYYCQQSYTVPYTFGGGTKVEIR
VH: EVQLLESGGGLVQPGGSLRLSCAASGFTFSAYSMIWVRQAPGKGLEWVSYIRPSGGRTTYADSVKGRFTISRDNSKNTLYLQMNSLRAEDTAVYYCARGGLLLWFVELKSNYFDYWGQGTLVTVSSASTKGPSVFPLAPSSKS
In the case of B1, the “Inhibit as a Fab?” value with pKal [1] is recorded as “No”.

B2: X66-F09: single point mutation of M142-H08 (P1); HV-CDR3 GGLLLWFWELKSNYFDY (antibody, V domains shown)
VL: QDIQMTQSPSSLSAFVGDRVTITCRASQPIDNYLNWYHQKPGKAPKLLIYAASRLQSGVPSRLSGSGFGTDFTLTISSLQPEDFGNYYCQQSYTVPYTFGGGTKVEIR
VH: EVQLLESGGGLVQPGGSLRLSCAASGFTFSAYSMIWVRQAPGKGLEWVSYIRPSGGRTTYADSVKGRFTISRDNSKNTLYLQMNSLRAEDTAVYYCARGGLLLWFWELKSNYFDYWGQGTLVTVSSASTKGPSVFPLAPSSKS
Take B2: the “Inhibit as a Fab?” value with pKal [1] is on record as “No”.

B3: M29-D09: antibody inhibitor of pKal; HV-CDR3 GSYDYIWGFYSDH (antibody, V domains shown)
VL: QSALTQPPTVSVSPGQTARITCSGNKLGDKYVAWYQQKPGQSPMLVIYQDTKRPSAIPERFSGSNSANTATLSISGTQALDEADYYCQAWDSSIVIFGGGTRLTVL
VH: EVQLLESGGGLVQPGGSLRLSCAASGFTFSWYTMVWVRQAPGKGLEWVSYIYPSGGATFYADSVKGRFTISRDNSKNTLYLQMNSLRAEDTAVYYCAMGSYDYIWGFYSDHWGQGTLVTVSSASTKGPSVFPLAPSSKS
As to B3, the “mouse Ki, app (nM)” value in the test with mouse pKal is given as “no”.

B4: M210-C12 (antibody, V domains shown)
VL: QDIQMTQSPGTLSLSPGERATLSCRTSQFVNSNYLAWYQQTPGQAPRLLIYGASSRATGIPDRFSGTGYGTDFTLTISRLEPEDYGTYYCQQSSRTPWTFGQGTRVEIK
VH: EVQLLESGGGLVQPGGSLRLSCAASGFTFSHYLMTWVRQAPGKGLEWVSYISPSGGHTIYADSVKGRFTISRDNSKNTLYLQMNSLRAEDTAVYYCARVAQGIAARSRTSSVDQWGQGTLVTVSSASTKGPSVFPLAPSSKS
The term % inhibition denotes the percentage by which the read-out fell short of the control. Lower therefore signals a response near the control. On to B4, for which the Ki in test [2] (setting [5]) was 0.16 nM. Moreover, the “% inhibition at 10 nM” value with pKal [3] (setting [6]) turned out to be 95.6%.

B5: M206-F01 (antibody, V domains shown)
VL: QDIQMTQSPGTLSLSPGERATLSCRTSQFVNSNYLAWYQQTPGQAPRLLIYGASSRATGIPDRFSGTGYGTDFTLTISRLEPEDYGTYYCQQSSRTPWTFGQGTRVEIK
VH: EVQLLESGGGLVQPGGSLRLSCAASGFTFSGYMMVWVRQAPGKGLEWVSRISPSGGPTIYADSVKGRFTISRDNSKNTLYLQMNSLRAEDTAVYYCARVARGIAARSRTSYFDYWGQGTLVTVSSASTKGPSVFPLAPSSKS
Take B5: the Ki in test [2] (setting [5]) came to 0.2 nM. Also, the “% inhibition at 10 nM” value with pKal [3] (setting [6]) was found to be 92.6%.

B6: M209-F04 (antibody, V domains shown)
VL: QDIQMTQSPGTLSLSPGERATLSCRTSQFVNSNYLAWYQQTPGQAPRLLIYGASSRATGIPDRFSGTGYGTDFTLTISRLEPEDYGTYYCQQSSRTPWTFGQGTRVEIK
VH: EVQLLESGGGLVQPGGSLRLSCAASGFTFSHYLMTWVRQAPGKGLEWVSYISPSGGHTIYADSVKGRFTISRDNSKNTLYLQMNSLRAEDTAVYYCARVARGIAARSRTSYLDQWGQGTLVTVSSASTKGPSVFPLAPSSKS
Take B6: the Ki in test [2] (setting [5]) worked out at 0.09 nM. The “% inhibition at 10 nM” value in the test with pKal [3] (setting [6]) was determined as 97.6%.

B7: M137-E12: antibody inhibitor of pKal; HV-CDR3 … (antibody, V domains shown)
VL: QSVLIQPPSVSGIPGQRVTISCSGNNSNFGSNTVTWYQQLPGTAPKLLIYSDSRRPSGVPDRFSGSRSDTSASLAISGLQSEDEAEYHCAAWDDSLNGVFGGGTKLTVL
VH: EVQLLESGGGLVQPGGSLRLSCAASGFTFSDYRMQWVRQAPGKGLEWVSVIVPSGGNTMYADSVKGRFTISRDNSKNTLYLQMNSLRAEDTAVYYCARGGPGSSIAARRAPTGYYGMDVWGQGTTVTVSSASTKGPSVFPLAPSSKS
Turning to B7, the Ki in test [2] (setting [7]) was found to be 79 nM. The “Human pKal ELISA (T/B)” value in test [4] was determined as 4.5.

B8: M202-A12 (antibody, V domains shown)
VL: QDIQMTQSPSTLSASVGDRVTITCRASQSISSWLAWYQQKPGKAPNLLIYKASTLESGVPSRFSGSGSGTEFTLTISSLQPDDFATYYCQQYNTYWTFGQGTKVEIK
VH: EVQLLESGGGLVQPGGSLRLSCAASGFTFSHYIMMWVRQAPGKGLEWVSGIYSSGGITVYADSVKGRFTISRDNSKNTLYLQMNSLRAEDTAVYYCAYQRTGVPRRDSFNIWGQGTMVTVSSASTKGPSVFPLAPSSKS
For the molecule B8, the Ki in test [2] (human pKal, Table 12, antibodies based on M162-A04, read-out: human pKal Ki, app) is 0.2 nM. In the test with pKal [3] (Table 12, antibodies based on M162-A04), the “% inhibition at 10 nM” value is 97.5%.

B9: M12-D05: antibody inhibitor of pKal; HV-CDR3 EGLLWFGENAFDI (antibody, V domains shown)
VL: QSVLTQPPSVSVSPGQTATITCSGDQLGDKYVGWYQQKPGQSPILVIYQDTKRPSGIPERFSGSNSGNTATLTISGTHTVDEAHYYCQAWDTSTAGFGGGTKLTVL
VH: EVQLLESGGGLVQPGGSLRLSCAASGFTFSWYTMVWVRQAPGKGLEWVSRIYPSGGWTKYADSVKGRFTISRDNSKNTLYLQMNSLRAEDTATYYCAREGLLWFGENAFDIWGQGTMVTVSSASTKGPSVFPLAPSSKS
For the molecule B9, in test [2] (setting [7]), the Ki is 5.2 nM. Moreover, in test [4], the “Human pKal ELISA (T/B)” value turned out to be 48.5.

B10: M28-B11: antibody inhibitor of pKal; HV-CDR3 EGLLWFGENAFDI (antibody, V domains shown)
VL: QSVLTQPPSVSVSPGQTATITCSGDQLGDKYVGWYQQKPGQSPILVIYQDTKRPSGIPERFSGSNSGNTATLTISGTHTVDEAHYYCQAWDTSTAGFGGGTKLTVL
VH: EVQLLESGGGLVQPGGSLRLSCAASGFTFSWYTMVWVRQAPGKGLEWVSRIYPSGGWTKYADSVKGRFTISRDNSKNTLYLQMNSLRAEDTATYYCAREGLLWFGENAFDIWGQGTMVTVSSASTKGPSVFPLAPSSKS
Turning to B10, the Ki in test [2] (setting [7]) is 5.5 nM. Besides, the “Human pKal ELISA (T/B)” value in test [4] is 33.3.
